Test results as given in the RNAGym collection of RNA variant scans (doi:10.1073/pnas.2313332121).
This sample holds only a part of the variants without activity.

B1: TPR 5TU (parent)
chain: GGAUCUUCUCGAUCUAACAAAAAAGACAAAUCUGCCACAAAGCUUGAGAGCAUCUUCGGAUGCAGAGGCGGCAGCCUUCGGUGGCGCGAUAGCGCCAACGUUCUCAACUAUGACACGCAAAACGCGUGCUCCGUUGAAUGGAGUUUAUCAUG

Variants of: B1
Assay: polymerase ribozyme fitness, log enrichment relative to wild type (log ratio); higher = more active; in vitro selection for triplet polymerase activity
Outline: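 Mutant libraries were PCR-built and transcribed for each subunit of a heterodimeric triplet polymerase ribozyme and selected for one round in triplicate at −7 °C, frozen, before gel excision of extended constructs and streptavidin-bead capture. Input and output libraries were Illumina-sequenced, keeping genotypes with ≥10 input reads and ≥1 read per output. Fitness is a logarithmic ratio of genotype to wild-type enrichment, in base 2, using inverse-variance-weighted replicate averages.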

Variant | polymerase ribozyme fitness (log ratio)
A16C G126A | -0.0283
A16C C57U A60G G86U C125U U134G | -4.12
A16G G25U A150G | -3.86
A16C G86U | -2.65
A16G A20U C99U U102G | ≤ -4.2
A16G A37U A60U G71C G84A C116A G124C U146G | ≤ -4.2
A16G A19C G80C C87A A150U | ≤ -4.2
A16C A17G C57U G86A G133U | ≤ -4.2
U15G C51U A98U A115G G136A | -2.29
A16C A49U C85U U146C | -2.7
A16G A20U G46U A60G A138C | ≤ -4.2
A16C A20C C85A G141C | -2.3
U15G C93U | -2.61
A16C A22U A89U C93U | -3.06
A16C A24G A73C A121G | ≤ -4.2
A16G C57A G62A C96U | -1.89
A16U C85U C87U A115G | -3.52
A16C U61A G67A C87U A107U | ≤ -4.2
U15G C132A | -2.26
A16G G83U G92A C96U | ≤ -4.2
U15G U82C G94A | -1.01
A16C A113U C118G | -3.27
A16U A20C A91U G141U | ≤ -4.2
U15G U77A U78G G88U C149G | ≤ -4.2

Variant | polymerase ribozyme fitness (log ratio)
A16G G50A A142C | -3.93
A16U A22U G117A C132A U151G | ≤ -4.2
U15G C57A G86U A122G | -1.4
U15G U31A | 0.571
U15G G84A | -1.57
A16C A150U | -0.0438
A16G A20U U33G C85A G94A A150C | ≤ -4.2
A16U C54G A97C C116G G124U A137C | ≤ -4.2
U15G G50C C69U C76A G84U | ≤ -4.2
A16G U144G | 0.162
U15G C76G G86C A122U G133C A142G U148G | ≤ -4.2
A16U C27U A29C A49G C95U C105G U146A | ≤ -4.2
A16U C32A C35G A47C G58C G68A G70U C96G G126C | ≤ -4.2
A16G A41G U53G A73U G88A C125U G133U | ≤ -4.2
A16C A37U G58A G80U C85G C93G A150G | ≤ -4.2
A16C C18G A47U G92A U101A | ≤ -4.2
A16G U31G A49U | ≤ -4.2
A16G C32U C72A C76U C85G A107U | ≤ -4.2
U15G C51U G86U A89U C114U | ≤ -4.2
A16U A22G C57A U135A | -3.06
A16G A20C C35A U44A A47G C129U G140C | ≤ -4.2
A16C A73G G92A | -3.3
A16U A17U A26U C27G A49U C54A A66U C85A C116G | -3.74
U15G G25U | -3.22

Variant | polymerase ribozyme fitness (log ratio)
A16U A17U G48U U104G G124A C131G | -4.15
A16C G94U A107G C116A C132U A142G | ≤ -4.2
A16U A24U C27U A39U U55A C76A | ≤ -4.2
A16G A20C U78A C87U | ≤ -4.2
A16C U45G A106G | -0.613
A16U G25C A52C C96U | -4.11
A16U G34U G71A G94A U102G U151A | ≤ -4.2
A16G A17G C18A G58C A60G C95A U144C A150C | ≤ -4.2
A16G A39U C43G G50U G67C U109A U134A U139C | ≤ -4.2
A16G G94A U104A | -0.709
U15G C99U A142U | -1.77
A16C A19U A73G C87A U148G G152U | ≤ -4.2
U15G C93A U109C | ≤ -4.2
A16C C36U G59C | -2.53
A16U C63U | -1.7
A16C U101G | -0.303
A16C U31C G50A G86A | -3.16
A16G A24U A52C C85A C95U | ≤ -4.2
A16C C51A C54G C57A C96A G117U U135G | ≤ -4.2
A16U C103G | -3.31
A16U A106G | -1.8
A16U A37U C76G U82G A89G A91G G143U | ≤ -4.2
A16G C35U C116G | -1.98
A16C C32U A122G | -3.01

Variant | polymerase ribozyme fitness (log ratio)
A16G A21C C27G G59A G67C U145G | ≤ -4.2
A16C G83A G94A | -2.79
U15G G46C C93A C95U | ≤ -4.2
A16U A19U | -2.39
A16C U144G | -0.499
U15G C51A A52C C69U C85A | ≤ -4.2
A16U C27A A28U C54U C75U G92C G136U | ≤ -4.2
A16G A41C U55G A142C | -3.52
A16G U82A U145G | -1.4
A16G G126A G143A | -3.34
A16G G80C G81A A97G U102C G136C C149U | ≤ -4.2
U15G C54U A60U C75G A113G | ≤ -4.2
A16G C43A U53C G70A A73G | ≤ -4.2
A16C U56C C87U | -2.13
A16C A17C A20U A30U A37C U55G C93G C103A A119G | ≤ -4.2
A16C A26G C35A A52G C87U | -3.98
A16U A19U A26C A37C G74C A89C G94A C108U A113G G136A | ≤ -4.2
A16C A17U A20U C38A C57U A60C G84A C116G | ≤ -4.2
A16U C125A | -2.06
A16U C51U C95U | -2.98
U15G C116U | 0.239
U15G G34U A107C A115U C118A U134C U135G A150G | ≤ -4.2
A16U C54A G81A C85U C114U G136U G143U C149G | ≤ -4.2
A16G A19U G48A C54A U101G C108A A137C A150C | ≤ -4.2

Variant | polymerase ribozyme fitness (log ratio)
A16C A20C G84U A97U U130C | -4.17
A16U C38A C75A C114U G143U | ≤ -4.2
A16G A40C | -0.456
A16G A91U | ≤ -4.2
A16C A40U C93A A122G G141C | ≤ -4.2
A16U A47G C51U C95A C114U | -3.93
A16U A17G G59C U77G G94U | -3.85
A16U A29U U45G U61G C93A | ≤ -4.2
A16C A24G U56C U77C G86A U104G U139A A142G | ≤ -4.2
A16G A17G U56G U61G G68A C72U C114G G143U | ≤ -4.2
A16U A29G A30U U53A U55A G62C U77G C116U | ≤ -4.2
A16C G141A | -0.406
A16C A17G C96G C118U | -1.74
A16C G94A C116G | -0.496
A16U A19U C103G | -4.18
A16G A39C | -2.62
A16U A39C A49C C96U C125U | ≤ -4.2
U15G C72U C87A U134A A150C U151G | ≤ -4.2
A16G C27A C35G C43A U56G G58C C93U G117C A119C A121U G136A | ≤ -4.2
A16G G46U | -1.19
A16G A23C U55G G88A C108A U111C A122C | ≤ -4.2
A16C A22U G62A G74A G81C A106G G141C | ≤ -4.2
A16C A20U | -2.36
A16C C32U | -2.43

Variant | polymerase ribozyme fitness (log ratio)
A16C A17G G58U C87A C93A | ≤ -4.2
A16U G50A A60C G83C G141C | ≤ -4.2
A16C A20C A41C C85G C116U | -3.81
A16C G94A | -1.78
A16U A23G U148A | ≤ -4.2
A16G C87U | -1.85
A16U C18U U44G U82A C93U C99A A106G A142C | ≤ -4.2
A16C U55A A106G | -1.85
A16G C54U C76A C93U A97G C103U C123U G128C | ≤ -4.2
A16C G25U C36U G59C C93U U104G G140C | ≤ -4.2
A16U C129A | -3.81
A16G A17U A41U C93U C125U U134G | -4.05
A16G G94U C95A U134G | -3.52
A16C U55A A142G A150G | -3.06
A16C G25C | -2.46
A16C G59C | -0.987
A16U A60C U61A A66C | ≤ -4.2
A16U A98U A122G U146G | -3.26
A16G U33G U90G C114U G117U A138C A150G | ≤ -4.2
A16U A41G A47C C76G G88C G94C A110C U134A G140A G141C A147C | ≤ -4.2
A16U A40G U44A G71C C85A G141A G143U | ≤ -4.2
A16G U55A G83A G117U | -1.7
A16G A29U U45A C54G C87G C125G | ≤ -4.2
A16U C35U G92U C116G | -3.21

Variant | polymerase ribozyme fitness (log ratio)
A16C C51U G84U U135A | -3.41
A16C G84A C105G C114U C125A U144A U151G | ≤ -4.2
A16C C18G A22G C27U A52G U61A A73G C85A U127C U139C | ≤ -4.2
A16G U78A C93G | ≤ -4.2
A16G C35G U53A C57U G84U C105G A150U | ≤ -4.2
U15G G48A U53A A73G C85A | ≤ -4.2
A16C U31A C32A G92C A97C A98C C103A C116U C125U | ≤ -4.2
A16G A73U G94U | -2.22
A16C U33C U77A | ≤ -4.2
A16U A21G A30U G48C | ≤ -4.2
A16G A20C A22C G25A A37U A40C C75U C96U U130G A138U U145G | ≤ -4.2
A16C U101G U127A | -3.71
U15G C85U | -0.0947
A16G A37C G46A G50C C87A G92A A138C A147U | ≤ -4.2
U15G G88A | -4.08
A16G G83U U139G | -1.17
A16U C43G G84C | ≤ -4.2
A16G U53G G84U C96G | -3.88
A16U C27U C57A C93A A107C C125A U146G | ≤ -4.2
A16G U45A C72U C93G U151A | ≤ -4.2
A16C U61A A89G C118A C149G | ≤ -4.2
A16C A110G | -3.67
A16C G59A C76A C85G U139A | ≤ -4.2
